Measurements taken from publication PMC3020915.
Values joined by “and” are separate entries in the source; they are usually repeats but may differ in a detail not shown here. Equal values may be shown once.

Molecular target: GST-Rif Q75L (UniProt Q9HBH0)
Test: pull-down

Row | fold increase of band intensity over the GST control | Binder
1 | 6 fold and 9.2 fold | MBP-NtΔBD (mDia2 91-528) (domain or fragment) NNPKALPESEVLKLFEKMMEDMNLNEDKKAPLREKDFGIKKEMVMQYINTASKTGSLRSSRQISPQEFLHELKMGYTDERLFTYLESLRVSLTSHPVSWVQSFGHEGLGLLLDILEKLINGQIQEKVVKKTQHKVIQCLRALMNTQYGLERIMSDKRSLSLLAKAMDPRQPAMMADVVKLLSAVCIVGEESILEEVLEALTSAGEERKIDRFFSIVEGLRHNSVNLQVACMQLINALVTSPDDLDFRLHLRNEFMRCGLKEILPNLKGIKNDGLDIQLKVFDEHKEEDLSEFFHRLEDIRAELDEASDVYSMLWDTVKETRAEGHFLSILQHLLLIRNDRFIREQYFKLIDECVSQIVLHRDGTDPDFTYRKRLDLDLSQFVDVCIDQAKLDEWEEKASEHCKKFEKECTDHQETQAQLQKREAKINELQAELQAFKS
2 | 2.4 fold and 3.8 fold | MBP-Nt (mDia2 N-terminus, 1-528) (domain or fragment) MERHRARALGRDSKSSRRKGLQSAPPAGPYEPGEKRPKLHLNIRTLTDDMLDKFASIRIPGSKKERPPLPHLKTVSGISDSSSLSSETMENNPKALPESEVLKLFEKMMEDMNLNEDKKAPLREKDFGIKKEMVMQYINTASKTGSLRSSRQISPQEFLHELKMGYTDERLFTYLESLRVSLTSHPVSWVQSFGHEGLGLLLDILEKLINGQIQEKVVKKTQHKVIQCLRALMNTQYGLERIMSDKRSLSLLAKAMDPRQPAMMADVVKLLSAVCIVGEESILEEVLEALTSAGEERKIDRFFSIVEGLRHNSVNLQVACMQLINALVTSPDDLDFRLHLRNEFMRCGLKEILPNLKGIKNDGLDIQLKVFDEHKEEDLSEFFHRLEDIRAELDEASDVYSMLWDTVKETRAEGHFLSILQHLLLIRNDRFIREQYFKLIDECVSQIVLHRDGTDPDFTYRKRLDLDLSQFVDVCIDQAKLDEWEEKASEHCKKFEKECTDHQETQAQLQKREAKINELQAELQAFKS
